Assays:
RAD52 (human) [1] = biological target: RAD52 (human) (UniProt P43351)
RAD52 (human) [2] = biological target: RAD52 (human) (UniProt P43351); remark: listed apart in the source
RAD52 (human) [3] = biological target: RAD52 (human) (UniProt P43351); remark: listed apart in the source
[4] = biological target: T1, His6-RAD52 (Homo sapiens) (UniProt P43351); test: competition (FRET); details: 8 nM RAD52 on 1 nM Cy3-dT30-Cy5; ssDNA EMSA: 30 mM Tris-acetate pH 7.5, 1 mM DTT, RT, 0.1% glutaraldehyde; FRET: same buffer + 0.1 mg/ml BSA, 25 C; dsDNA EMSA: 30 mM KPi pH 7.4, 1 mM DTT …; scale: nM base pairs for nearly complete ssDNA release
T1 sequence: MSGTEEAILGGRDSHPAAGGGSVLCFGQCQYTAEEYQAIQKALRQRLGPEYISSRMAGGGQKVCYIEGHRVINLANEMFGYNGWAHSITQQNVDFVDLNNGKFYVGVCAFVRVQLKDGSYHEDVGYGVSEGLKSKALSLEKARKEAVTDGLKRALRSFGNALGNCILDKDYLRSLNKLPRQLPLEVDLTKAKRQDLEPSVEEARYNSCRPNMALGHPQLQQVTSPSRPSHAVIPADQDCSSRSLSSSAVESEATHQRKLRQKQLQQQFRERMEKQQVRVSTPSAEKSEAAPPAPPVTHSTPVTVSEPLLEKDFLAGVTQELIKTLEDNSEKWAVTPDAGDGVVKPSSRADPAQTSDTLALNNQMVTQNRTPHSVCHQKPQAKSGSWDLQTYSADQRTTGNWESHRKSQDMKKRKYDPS

[5] = biological target: His6-RAD52;DSS1 (Homo sapiens;Homo sapiens) (UniProt P43351+P60896); test: competition (FRET); details: 8 nM RAD52-DSS1 on 1 nM Cy3-dT30-Cy5; ssDNA EMSA: 30 mM Tris-acetate pH 7.5, 1 mM DTT, RT, 0.1% glutaraldehyde; FRET: same buffer + 0.1 mg/ml BSA, 25 C; dsDNA EMSA: 30 mM KPi pH 7.4, 1 mM DTT …; scale: nM base pairs for almost complete ssDNA release
Chain of His6-RAD52;DSS1 (Homo sapiens;Homo sapiens) (P60896 whole entry, one chain of several): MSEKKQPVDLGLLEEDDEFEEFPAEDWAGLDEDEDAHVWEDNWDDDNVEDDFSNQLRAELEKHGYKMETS

Row | gel-based single-strand annealing of 3'-overhang substrates, increasing RAD52 or pre-formed RAD52-DSS1 (1:1): maximum yield (optimum at 120 nM complex against 480 nM RAD52 alone) (RAD52 (human) [1]) [%] | FRET-based annealing of complementary 28-mers, 8 nM RAD52 with 40 nM DSS1, no RPA: initial rate (RAD52 alone 5.2 bp/s) (RAD52 (human) [2]) [bp/s] | D-loop formation with a 90-mer ssDNA and supercoiled plasmid, RAD52 or RAD52-DSS1 (1:1) at 150-3200 nM: yield (10% for RAD52 alone at 800 nM) (RAD52 (human) [3]) [%] | Substance | binding signal [4] | binding signal [5]
1 | 65 | 17.5 | 20 | DSS1 (natural protein) | – | –
2 | – | – | – | PhiX174 RF I DNA, ApaLI-linearized | 200 | 50

Source: publication PMC6954417
